Source: PMC12417186

Tests used:
[1] = molecular target: C3b purified from plasma of donor D1 by the novel direct method (human) (UniProt P01024); assay: SPR; C3b biotinylated at the thioester sulfhydryl, immobilised on SA sensor chip (950-1050 RU); analytes injected 2 min at 30 µl/min; 25°C; PBS, 0.05% Tween20, 1 mM MgCl2; 1:1 steady-state model; Biacore X100
[2] = molecular target: C3b (commercial), Complement Technology (human) (UniProt P01024); assay: as above
[3] = molecular target: C3b purified from plasma of donor D2 by the novel direct method (human) (UniProt P01024); assay: as above
[4] = molecular target: C3b purified from plasma of donor D3 by the novel direct method (human) (UniProt P01024); assay: as above
[5] = molecular target: C3b purified from plasma of donor D1 by the novel direct method (human) (UniProt P01024); assay: SPR; on-chip convertase assay: 600 nM FB and 100 nM FD injected 3 min over biotinylated C3b on SA chip, 10 min dissociation; 25°C; PBS, 0.05% Tween20, 1 mM MgCl2; exponential decay fit of 200-780 s; mean of three curves; 'estimated'
[6] = molecular target: C3b (commercial), Complement Technology (human) (UniProt P01024); assay: as above
[7] = molecular target: C3b purified from plasma of donor D2 by the novel direct method (human) (UniProt P01024); assay: as above
[8] = molecular target: C3b purified from plasma of donor D3 by the novel direct method (human) (UniProt P01024); assay: as above

Row | Kd [1] | Kd [2] | Kd [3] | Kd [4] | koff [5] | koff [6] | koff [7] | koff [8] | Substance
1 | 10500 nM | 9300 nM | 10400 nM | 10600 nM |  |  |  |  | complement Factor H CCPs 19-20 (domain or fragment)
2 | 485 nM | 476 nM | 650 nM | 438 nM |  |  |  |  | complement receptor 1 (CR1) complement control protein (CCP) domains 15-17 (domain or fragment)
3 | 860 nM | 754 nM | 944 nM | 795 nM |  |  |  |  | variable domain of the complement receptor of the immunoglobulin superfamily (domain or fragment)
4 |  |  |  |  | 0.002 s⁻¹ | 0.0019 s⁻¹ | 0.002 s⁻¹ | 0.0019 s⁻¹ | Bb fragment of Factor B in the alternative pathway convertase C3bBb (from UniProt P00751 260-764) (domain or fragment)
